According to US20110118131A1 (published 2011):
Where a chain is given by its changes, count along the chain named.

T1: Ep-CAM (UniProt P16422 24-265, limits assumed)
T1 construct: Immobilised on the Biacore chip; construct not described
T1 sequence (looked up): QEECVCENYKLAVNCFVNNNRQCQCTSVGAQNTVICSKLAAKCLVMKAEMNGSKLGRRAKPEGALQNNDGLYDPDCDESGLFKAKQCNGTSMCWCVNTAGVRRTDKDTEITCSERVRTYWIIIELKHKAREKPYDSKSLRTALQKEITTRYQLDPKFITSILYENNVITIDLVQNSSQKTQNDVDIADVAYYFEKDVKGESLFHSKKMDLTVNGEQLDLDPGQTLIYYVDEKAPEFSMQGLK

T2: Ep-CAM (UniProt P16422 24-265, limits assumed)
T2 sequence (looked up): T1 sequence (looked up)

B1: ING-1 Fab, light chain E98P (Fab, V domains shown)
VH: QIQLVQSGPELKKPGETVKISCKASGYTFTKYGMNWVKQAPGKGLKWMGWINTYTEEPTYGDDFKGRFAFSLETSASTANLQINNLKSEDTATYFCARFGSAVDYWGQGTSVTVSS
VL: DIVMTQAAFSNPVTLGTSGSISCRSSKSLLHSNGITYLYWYLQKPGQSPQLLIYQMSNLASGVPDRFSSSGSGTDFTLRISRVEAEDVGVYYCAQNLPLPRTFGGGTKLEMKR
notes: Fab in periplasmic extract
B2: ING-1 Fab, heavy chain T53P (Fab, V domains shown)
VH: B1 VH with T53P
VL: B1 VL with P98E
notes: Fab in periplasmic extract
B3: ING-1 Fab, light chain M56G (Fab, V domains shown)
VH: B1 VH
VL: B1 VL with M56G, P98E
notes: Fab in periplasmic extract
B4: ING-1 Fab, heavy chain N52T (Fab, V domains shown)
VH: B1 VH with N52T
VL: B1 VL with P98E
notes: Fab in periplasmic extract
B5: ING-1 Fab, heavy chain G33V (Fab, V domains shown)
VH: B1 VH with G33V
VL: B1 VL with P98E
notes: Fab in periplasmic extract
B6: ING-1 Fab, light chain I35P (Fab, V domains shown)
VH: B1 VH
VL: B1 VL with I35P, P98E
notes: Fab in periplasmic extract
B7: ING-1 Fab, light chain L99T (Fab, V domains shown)
VH: B1 VH
VL: B1 VL with P98E, L99T
notes: Fab in periplasmic extract
B8: ING-1 Fab, heavy chain Y105P (Fab, V domains shown)
VH: B1 VH with Y105P
VL: B1 VL with P98E
notes: Fab in periplasmic extract
B9: ING-1 Fab, heavy chain G100P (Fab, V domains shown)
VH: B1 VH with G100P
VL: B1 VL with P98E
notes: Fab in periplasmic extract
B10: ING-1 Fab, light chain L97G (Fab, V domains shown)
VH: B1 VH
VL: B1 VL with L97G, P98E
notes: Fab in periplasmic extract
B11: ING-1 Fab, heavy chain P58T (Fab, V domains shown)
VH: B1 VH with P58T
VL: B1 VL with P98E
notes: Fab in periplasmic extract
B12: ING-1 Fab, heavy chain N52V (Fab, V domains shown)
VH: B1 VH with N52V
VL: B1 VL with P98E
notes: Fab in periplasmic extract
B13: ING-1 Fab, heavy chain W50T (Fab, V domains shown)
VH: B1 VH with W50T
VL: B1 VL with P98E
notes: Fab in periplasmic extract
B14: ING-1 Fab, heavy chain T59P (Fab, V domains shown)
VH: B1 VH with T59P
VL: B1 VL with P98E
notes: Fab in periplasmic extract
B15: ING-1 Fab, light chain K27T (Fab, V domains shown)
VH: B1 VH
VL: B1 VL with K27T, P98E
notes: Fab in periplasmic extract
B16: ING-1 Fab, light chain L99G (Fab, V domains shown)
VH: B1 VH
VL: B1 VL with P98E, L99G
notes: Fab in periplasmic extract
B17: ING-1 Fab, heavy chain K31L (Fab, V domains shown)
VH: B1 VH with K31L
VL: B1 VL with P98E
notes: Fab in periplasmic extract
B18: ING-1 Fab, heavy chain Y105G (Fab, V domains shown)
VH: B1 VH with Y105G
VL: B1 VL with P98E
notes: Fab in periplasmic extract
B19: ING-1 Fab, heavy chain Y32L (Fab, V domains shown)
VH: B1 VH with Y32L
VL: B1 VL with P98E
notes: Fab in periplasmic extract
B20: ING-1 Fab, heavy chain N52G (Fab, V domains shown)
VH: B1 VH with N52G
VL: B1 VL with P98E
notes: Fab in periplasmic extract
B21: ING-1 Fab, heavy chain T55G (Fab, V domains shown)
VH: B1 VH with T55G
VL: B1 VL with P98E
notes: Fab in periplasmic extract
B22: ING-1 Fab, heavy chain W50G (Fab, V domains shown)
VH: B1 VH with W50G
VL: B1 VL with P98E
notes: Fab in periplasmic extract
B23: ING-1 Fab, light chain L97A (Fab, V domains shown)
VH: B1 VH
VL: B1 VL with L97A, P98E
notes: Fab in periplasmic extract
B24: ING-1 Fab, heavy chain Y105A (Fab, V domains shown)
VH: B1 VH with Y105A
VL: B1 VL with P98E
notes: Fab in periplasmic extract
B25: ING-1 Fab, light chain I35L (Fab, V domains shown)
VH: B1 VH
VL: B1 VL with I35L, P98E
notes: Fab in periplasmic extract
B26: ING-1 Fab, heavy chain Y32G (Fab, V domains shown)
VH: B1 VH with Y32G
VL: B1 VL with P98E
notes: Fab in periplasmic extract
B27: ING-1 Fab, heavy chain N52I (Fab, V domains shown)
VH: B1 VH with N52I
VL: B1 VL with P98E
notes: Fab in periplasmic extract
B28: ING-1 Fab, heavy chain T53G (Fab, V domains shown)
VH: B1 VH with T53G
VL: B1 VL with P98E
notes: Fab in periplasmic extract
B29: ING-1 Fab, light chain L29P (Fab, V domains shown)
VH: B1 VH
VL: B1 VL with L29P, P98E
notes: Fab in periplasmic extract
B30: ING-1 Fab, heavy chain N52A (Fab, V domains shown)
VH: B1 VH with N52A
VL: B1 VL with P98E
notes: Fab in periplasmic extract
B31: ING-1 Fab, heavy chain N52P (Fab, V domains shown)
VH: B1 VH with N52P
VL: B1 VL with P98E
notes: Fab in periplasmic extract
B32: ING-1 Fab, heavy chain W50V (Fab, V domains shown)
VH: B1 VH with W50V
VL: B1 VL with P98E
notes: Fab in periplasmic extract
B33: ING-1 Fab, heavy chain N52L (Fab, V domains shown)
VH: B1 VH with N52L
VL: B1 VL with P98E
notes: Fab in periplasmic extract
B34: ING-1 Fab, heavy chain S101L (Fab, V domains shown)
VH: B1 VH with S101L
VL: B1 VL with P98E
notes: Fab in periplasmic extract
B35: ING-1 Fab, heavy chain Y32A (Fab, V domains shown)
VH: B1 VH with Y32A
VL: B1 VL with P98E
notes: Fab in periplasmic extract
B36: ING-1 Fab, heavy chain W50P (Fab, V domains shown)
VH: B1 VH with W50P
VL: B1 VL with P98E
notes: Fab in periplasmic extract
B37: ING-1 Fab, heavy chain Y32I (Fab, V domains shown)
VH: B1 VH with Y32I
VL: B1 VL with P98E
notes: Fab in periplasmic extract
B38: ING-1 Fab, heavy chain W50I (Fab, V domains shown)
VH: B1 VH with W50I
VL: B1 VL with P98E
notes: Fab in periplasmic extract
B39: ING-1 Fab, heavy chain W50L (Fab, V domains shown)
VH: B1 VH with W50L
VL: B1 VL with P98E
notes: Fab in periplasmic extract
B40: ING-1 Fab, heavy chain W50A (Fab, V domains shown)
VH: B1 VH with W50A
VL: B1 VL with P98E
notes: Fab in periplasmic extract
B41: ING-1 Fab, light chain L99P (Fab, V domains shown)
VH: B1 VH
VL: B1 VL with P98E, L99P
notes: Fab in periplasmic extract
B42: ING-1 Fab, light chain L29I (Fab, V domains shown)
VH: B1 VH
VL: B1 VL with L29I, P98E
notes: Fab in periplasmic extract
B43: ING-1 Fab, heavy chain Y32P (Fab, V domains shown)
VH: B1 VH with Y32P
VL: B1 VL with P98E
notes: Fab in periplasmic extract

Columns and labels:
Ep-CAM [1] = biological target: T1, Ep-CAM; assay: Biacore, Fab periplasmic extract
Ep-CAM [2] = biological target: T2, Ep-CAM; assay: Biacore, Fab periplasmic extract on immobilised Epcam

Binder | binding result (Ep-CAM [2]) | fold difference in affinity vs original (Ep-CAM [2]) | further results
B1 | – | – | binding result (Ep-CAM [1]): no binding
B2 | no binding | – | –
B3 | – | – | fold difference in affinity vs original ING-1 (Ep-CAM [1]): 0.8 fold
B4 | no binding | – | –
B5 | – | 0.04 fold | –
B6 | – | – | fold difference in affinity vs original ING-1 (Ep-CAM [1]): 0.7 fold
B7 | – | – | fold difference in affinity vs original ING-1 (Ep-CAM [1]): 0.09 fold
B8 | no binding | – | –
B9 | no binding | – | –
B10 | – | – | binding result (Ep-CAM [1]): no binding
B11 | – | 1 fold | –
B12 | no binding | – | –
B13 | – | 0.03 fold | –
B14 | no binding | – | –
B15 | – | – | binding result (Ep-CAM [1]): no binding
B16 | – | – | fold difference in affinity vs original ING-1 (Ep-CAM [1]): 0.02 fold
B17 | – | 0.6 fold | –
B18 | no binding | – | –
B19 | – | 0.05 fold | –
B20 | no binding | – | –
B21 | – | 0.02 fold | –
B22 | – | 0.03 fold | –

Binder | binding result (Ep-CAM [2]) | fold difference in affinity vs original (Ep-CAM [2]) | further results
B23 | – | – | fold difference in affinity vs original ING-1 (Ep-CAM [1]): 0.5 fold
B24 | – | 0.08 fold | –
B25 | – | – | fold difference in affinity vs original ING-1 (Ep-CAM [1]): 0.6 fold
B26 | – | 0.02 fold | –
B27 | no binding | – | –
B28 | no binding | – | –
B29 | – | – | binding result (Ep-CAM [1]): no binding
B30 | no binding | – | –
B31 | no binding | – | –
B32 | – | 0.02 fold | –
B33 | no binding | – | –
B34 | no binding | – | –
B35 | – | 0.01 fold | –
B36 | no binding | – | –
B37 | – | 0.03 fold | –
B38 | – | 0.07 fold | –
B39 | – | 0.04 fold | –
B40 | – | 0.03 fold | –
B41 | – | – | fold difference in affinity vs original ING-1 (Ep-CAM [1]): 0.01 fold
B42 | – | – | binding result (Ep-CAM [1]): no binding
B43 | – | 0.01 fold | –
